In patent US20170157165, “APTAMER FOR FGF2 AND USE THEREOF” (RIBOMIC INC., published 2017):
Numbering of substitutions follows the chain as printed.

B1: aptamer ID 8 (ssRNA)
RNA: CGGAUACUAGGGCAUUAAUGUUACCAGUGUAGUCCG
modifications: 2'-F at U8,U16,U21,U28,U30; 2'-OH at G12,G27,G29; all others 2'-OMe; 5' NH2; 3' idT
B2: aptamer ID 9 (ssRNA)
RNA: B1 RNA with G2C, C35G
modifications: 2'-F at U8,U16,U21,U28,U30; 2'-OH at G12,G27,G29; all others 2'-OMe; 5' NH2; 3' idT
B3: aptamer ID 12 (ssRNA)
RNA: B1 RNA with C1G, A17U, G36C
modifications: 2'-F at U8,U16,U21,U28,U30; 2'-OH at G12,G27,G29; all others 2'-OMe
B4: aptamer ID 10 (ssRNA)
RNA: B1 RNA with C1G, A14G, U19C, G36C
modifications: 2'-F at U8,U16,U21,U28,U30; 2'-OH at G12,G27,G29; all others 2'-OMe
B5: aptamer ID 3(21) (ssRNA)
RNA: B1 RNA with C1G, G36C
modifications: 2'-F at U8,U16,U21,U28,U30; 2'-OH at G12,G27,G29; all others 2'-OMe; 5' PEG 40K (GL2-400TS)-C6; 3' idT
B6: aptamer ID 11 (ssRNA)
RNA: B1 RNA with C1G, A14C, U19G, G36C
modifications: 2'-F at U8,U16,U21,U28,U30; 2'-OH at G12,G27,G29; all others 2'-OMe
B7: aptamer ID 3(19) (ssRNA)
RNA: B1 RNA with C1G, G36C
modifications: 2'-F at U8,U16,U21,U28,U30; 2'-OH at G12,G27,G29; all others 2'-OMe; 3' idT
B8: aptamer ID 6 (ssRNA)
RNA: AGGGAUACUAGGGCAUUAAUGUUACCAGUGUAGUCCC
modifications: 2'-F at U9,U17,U22,U29,U31; 2'-OH at G13,G28,G30; all others 2'-OMe; 3' idT
B9: aptamer ID 5 (ssRNA)
RNA: GGGGAUACUAGGGCAUUAAUGUUACCAGUGUAGUCCCC
modifications: 2'-F at U9,U17,U22,U29,U31; 2'-OH at G13,G28,G30; all others 2'-OMe; 3' idT

Legend:
Conditions in all cases: tags: Peprotech
FGF2 [1] = target: T1, FGF2 (Homo sapiens, UniProt P09038 P09038:135-288); test: cell_activity; HUVEC proliferation
T1 sequence (P09038 135-288, one chain of several): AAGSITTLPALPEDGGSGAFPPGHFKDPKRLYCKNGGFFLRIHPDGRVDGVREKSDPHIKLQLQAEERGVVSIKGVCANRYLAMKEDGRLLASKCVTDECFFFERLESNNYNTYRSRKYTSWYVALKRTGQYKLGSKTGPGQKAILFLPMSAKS
Protocol: (§1) Human umbilical vein endothelial cells (HUVEC) were seeded in a 96 well flat bottom plate at 5×10³ cells per well, and cultured overnight using a medium EGM-2 Bullet Kit for endothelial cells (CC-3162 manufactured by Lonza) containing 2% fetal bovine serum and growth factors. Thereafter, the medium was discarded, the cells were washed twice with PBS buffer, and a mixture of the aptamer shown by aptamer ID 3(21) (5, 2.5, 1, 0.5 nM) and FGF2 (final concentration 0.5 nM), dissolved in a medium exclusively for endothelial cells containing 2% fetal bovine serum, was added. After 72 hr, viable cell number was examined using Cell Counting Kit-8. For the measurement of absorbance, a microplate reader (450 nm) was used. One sample was measured at n=3. As a positive control, anti-FGF2 antibody Anti-FGF, basic (Ab-3) Mouse mAb (3H3) (manufactured by Calbiochem) were used. With the OD value per well obtained by the addition of FGF2 alone and culture of the cells for 3 days as inhibitory activity 0%, and that of the cell obtained by FGF2 free culture for 3 days as inhibitory activity 100%, the inhibitory activity of the aptamer was calculated from the OD value per well obtained by culturing with the addition of a mixture of FGF2 and the aptamer. As a result, it was shown that the aptamer shown by aptamer ID 3(21) has a high inhibitory activity against FGF2.
By a method similar to that in Example 5, the inhibitory activity of the aptamers shown by aptamer IDs 8-12 was measured.

FGF2 [2] = target: T1, FGF2; test: cell_activity; HUVEC proliferation, FGF2 0.5 nM
Protocol: as §1

FGF2 [3] = target: T1, FGF2; test: inhibition; SPR inhibition of FGF2-FGFR1alpha(IIIc); each 0.1 uM
Protocol: BIAcore2000 manufactured by BIAcore was used for the measurement. As directed in BIAcore Company's protocol, Protein A (21181, manufactured by PIERCE) was immobilized on a CM5 sensor chip. About 1,000 RU of human FGFR1α (IIIc), R2α (IIIc), R3 (IIIc), R4 (manufactured by R&D Systems) fused with the Fc portion of IgG (manufactured by R&D systems) was each immobilized thereon. As analyte, a mixture of FGF2 (0.1 μM), heparin (0.1 μM) (manufactured by Pfizer) and aptamer (0.15 μM) was flown. Before an inhibitory test, a mixture of FGF2 and heparin was confirmed to bind to 4 kinds of receptors. […] A sensorgram showing that the aptamer shown by aptamer ID 1 inhibits binding of FGF2 and FGFR1α(IIIc), 2α(IIIc), 3(IIIc), 4 is shown in FIG. 2.
In addition, the inhibitory rate against each of the 4 kinds of receptors was determined. The inhibitory rate was determined with the maximum binding amount of the FGF2 and heparin mixture as 0, and the binding amount with an injection buffer alone as 100. The binding amount here means the RU value of the peak top of sensorgram. The inhibitory rate was calculated. […] The inhibitory rate of other aptamers was not more than 50%.
To enhance FGF2-binding activity, stability, drug deliverability and the like, the nucleic acids shown by aptamer IDs 3(1)-3(40), aptamer IDs 4 and 4(1)-4(4), aptamer ID 5 and aptamer ID 6 were chemically synthesized based on the aptamer shown in SEQ ID NO: 3. Here, the aptamer shown by aptamer ID 4 is the aptamer shown by aptamer ID 3(19) wherein one G(M) at the 5′-terminal and one C(M) at the 3′-terminal have been deleted. The aptamer shown by aptamer ID 5 is the aptamer shown by aptamer ID 3(19) wherein one G(M) has been added at the 5′-terminal and one C(M) has been added at the 3′-terminal. The aptamer shown by aptamer ID 6 is the aptamer shown by aptamer ID 3(19) wherein A(M) alone has been added at the 5′-terminal. These nucleic acids were produced by chemical synthesis.

FGF2 [4] = target: T1, FGF2; test: cell_activity; HUVEC proliferation, FGF2 0.58 nM
Protocol: as §1
By a method similar to the above except that the 96 well flat bottom plate was changed to a collagen-coated one, the activity of various aptamers was evaluated. The concentration of FGF2 added was 0.58 nM. As a negative control RNA, Macugen (registered trade mark) sequence without addition of PEG, and with C6 modification of the 5′-terminal and idT modification of the 3′-terminal was used.

| Binder | IC50 (FGF2 [1]) [nM] | IC50 (FGF2 [2]) [nM] | activity (FGF2 [3]) [%] | IC50 (FGF2 [4]) [nM] |
| --- | --- | --- | --- | --- |
| B1 | 5.6 |  |  |  |
| B2 | 3.7 |  |  |  |
| B3 | 2.3 |  |  |  |
| B4 | 4.9 |  |  |  |
| B5 |  | ~1 | 97 |  |
| B6 | 13 |  |  |  |
| B7 | 3.4 |  | 93 |  |
| B8 |  |  | 93 | 3.1 |
| B9 |  |  | 94 | 2.6 |
